# Test results: paper PMC10797482, “The Interaction between Collagen 1 and High Mannose Type CD133 Up‐Regulates Glutamine Transporter SLC1A5 to Promote the Tumorigenesis of Glioblastoma Stem Cells” (Advanced Science, 2023)
# B1: GST-CD133(20-108) (domain or fragment, human, UniProt O43490 20-108, looked up)
# chain: GGQPSSTDAPKAWNYELPATNYETQDSHKAGPIGILFELVHIFLYVVQPRDFPEDTLRKFLQKAYESKIDYDKPETVILGLKIVYYEAG
# notes: source: E. coli BL21(DE3), purified (Glutathione-Superflow Resin)
# B2: GST-CD133 N-terminal segment (amino acids 43–81) (domain or fragment, human, UniProt O43490 43-81, looked up)
# chain: TQDSHKAGPIGILFELVHIFLYVVQPRDFPEDTLRKFLQ
# notes: source: E. coli BL21, purified (Glutathione-Superflow Resin)
# Target: T1, His-COL1A1(972-1206) (human, UniProt P02452 972-1206)
# T1 construct: also called COL1 (in the in vitro pull-downs); source: HEK293F, transfected (PEI), purified from the supernatants (Nickel Beads)
# T1 sequence (P02452 972-1206): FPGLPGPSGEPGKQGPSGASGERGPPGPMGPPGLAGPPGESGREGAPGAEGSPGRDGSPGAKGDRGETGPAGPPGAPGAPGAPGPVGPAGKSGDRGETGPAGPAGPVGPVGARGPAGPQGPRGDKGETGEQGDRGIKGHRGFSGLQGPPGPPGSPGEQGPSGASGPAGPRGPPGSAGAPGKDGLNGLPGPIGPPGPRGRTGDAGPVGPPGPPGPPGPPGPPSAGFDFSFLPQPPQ
# Test: pull-down; GST pull-down: 10 µg purified GST fusion protein with GST-beads incubated with His-COL1A1(972-1206) protein 1 h at 4 °C; washed three times with RIPA (1% Triton X-100, 50 mM Tris pH 7.4, 150 mM NaCl, 2 mM EDTA); blot with anti-His antibody
# Conditions: both partners purified
row,Binder,binding result
1,B1,binds
2,B2,binds
